# Values quoted from earlier work in PMC12026706.
# Assays:
# Assay in all cases: BIAcore SPR
# [1] = biological target: IL-6R (Homo sapiens) (UniProt P08887)
# [2] = biological target: MD2 (Homo sapiens) (UniProt Q9Y6Y9)
# [3] = biological target: TLR4 (Homo sapiens) (UniProt O00206)
# [4] = biological target: TLR4/MD2 complex (Homo sapiens) (UniProt O00206)
# [5] = biological target: TREM-1 (Homo sapiens) (UniProt Q9NP99)
# TREM-1 (Homo sapiens), sequence (Q9NP99 21-234): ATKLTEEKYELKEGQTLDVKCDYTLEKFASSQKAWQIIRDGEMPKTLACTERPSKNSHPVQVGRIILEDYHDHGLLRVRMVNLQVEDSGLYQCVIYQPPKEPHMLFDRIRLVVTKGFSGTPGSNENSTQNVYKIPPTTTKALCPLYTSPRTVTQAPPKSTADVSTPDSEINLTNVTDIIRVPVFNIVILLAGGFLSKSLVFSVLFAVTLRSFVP
# eCIRP, sequence (Q14011 whole entry): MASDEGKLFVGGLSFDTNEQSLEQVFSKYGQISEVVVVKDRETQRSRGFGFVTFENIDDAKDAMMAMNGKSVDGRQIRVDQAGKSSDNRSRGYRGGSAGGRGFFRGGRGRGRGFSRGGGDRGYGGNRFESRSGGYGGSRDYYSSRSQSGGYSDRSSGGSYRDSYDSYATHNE
# IL-6R (Homo sapiens), sequence (P08887 20-355): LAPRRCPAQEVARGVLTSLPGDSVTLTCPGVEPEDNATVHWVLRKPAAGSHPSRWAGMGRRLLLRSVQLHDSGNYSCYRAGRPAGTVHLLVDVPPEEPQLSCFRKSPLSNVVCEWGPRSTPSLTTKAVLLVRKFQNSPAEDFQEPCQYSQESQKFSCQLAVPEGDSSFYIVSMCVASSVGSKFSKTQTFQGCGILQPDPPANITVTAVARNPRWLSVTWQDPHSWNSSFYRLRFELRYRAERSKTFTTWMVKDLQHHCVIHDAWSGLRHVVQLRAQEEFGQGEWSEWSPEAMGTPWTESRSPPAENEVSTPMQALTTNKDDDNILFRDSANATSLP
# MD2 (Homo sapiens), sequence (Q9Y6Y9 19-160): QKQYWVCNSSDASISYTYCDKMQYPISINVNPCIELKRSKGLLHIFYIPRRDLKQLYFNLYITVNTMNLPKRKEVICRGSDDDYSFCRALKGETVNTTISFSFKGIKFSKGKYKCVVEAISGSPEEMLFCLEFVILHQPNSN
# TLR4/MD2 complex (Homo sapiens), sequence (O00206 24-839, chain 1 of 2): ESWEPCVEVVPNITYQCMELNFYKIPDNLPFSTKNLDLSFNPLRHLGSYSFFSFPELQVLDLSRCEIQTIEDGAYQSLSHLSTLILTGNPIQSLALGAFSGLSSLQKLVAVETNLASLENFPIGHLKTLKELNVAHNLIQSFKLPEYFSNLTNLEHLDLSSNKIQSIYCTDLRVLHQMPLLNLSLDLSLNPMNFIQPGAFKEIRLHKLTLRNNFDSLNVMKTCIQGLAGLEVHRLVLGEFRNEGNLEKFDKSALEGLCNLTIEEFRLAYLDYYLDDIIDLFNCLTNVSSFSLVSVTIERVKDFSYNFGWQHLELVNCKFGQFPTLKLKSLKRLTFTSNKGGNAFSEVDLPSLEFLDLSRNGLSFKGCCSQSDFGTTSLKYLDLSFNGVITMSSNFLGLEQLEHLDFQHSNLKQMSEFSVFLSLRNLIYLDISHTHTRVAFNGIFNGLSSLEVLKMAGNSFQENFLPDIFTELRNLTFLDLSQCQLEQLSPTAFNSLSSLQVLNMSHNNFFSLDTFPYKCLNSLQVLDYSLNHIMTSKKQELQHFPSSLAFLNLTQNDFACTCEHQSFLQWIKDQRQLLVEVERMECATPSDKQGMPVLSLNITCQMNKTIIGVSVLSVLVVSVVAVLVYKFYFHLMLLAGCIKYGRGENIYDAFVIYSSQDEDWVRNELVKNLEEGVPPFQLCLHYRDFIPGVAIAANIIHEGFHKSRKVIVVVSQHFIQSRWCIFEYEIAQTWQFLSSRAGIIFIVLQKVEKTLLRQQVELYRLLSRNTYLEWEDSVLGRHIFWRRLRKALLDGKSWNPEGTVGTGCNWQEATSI
# TLR4/MD2 complex (Homo sapiens), sequence (Q9Y6Y9 19-160, chain 2 of 2, further chain): as the sequence (Q9Y6Y9 19-160) above
# TLR4 (Homo sapiens), sequence (O00206 24-839): as the sequence (O00206 24-839, chain 1 of 2) above
substance,measurement,setting,value
eCIRP (from UniProt Q14011),Kd,[1],98 nM
same,Kd,[2],302 nM
same,Kd,[3],617 nM
same,Kd,[4],239 nM
same,Kd,[5],117 nM
